This is an account of results in patent US8728749B2, “Detection of LCAT activity” (priority 2010, dated 2014).

One data set addresses T1, rhLCAT (Homo sapiens, UniProt P04180).
T1 construct: made in house; host or cells: HEK293f cells, stably transfected with pcDNA3.1/Hygro carrying the LCAT insert from Origene pCMV6-XL4/LCAT
T1 sequence (P04180 25-440): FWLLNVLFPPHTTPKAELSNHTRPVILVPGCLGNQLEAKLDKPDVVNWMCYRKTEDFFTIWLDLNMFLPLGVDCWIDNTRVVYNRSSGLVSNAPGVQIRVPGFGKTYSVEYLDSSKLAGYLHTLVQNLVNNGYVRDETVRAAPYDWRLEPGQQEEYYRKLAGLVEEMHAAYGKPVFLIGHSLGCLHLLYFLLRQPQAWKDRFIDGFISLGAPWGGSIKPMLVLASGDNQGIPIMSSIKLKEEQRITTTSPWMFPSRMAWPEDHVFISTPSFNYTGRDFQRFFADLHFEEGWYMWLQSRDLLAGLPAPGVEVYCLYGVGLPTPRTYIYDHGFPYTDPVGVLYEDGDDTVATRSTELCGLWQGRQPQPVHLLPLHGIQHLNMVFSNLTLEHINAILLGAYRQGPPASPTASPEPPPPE
In words: LCAT activating potential of LCAT-activating peptides in mHDL substrate (DHE fluorescence / cholesterol oxidase assay). Format: biochemical. Conditions: specific activity of rhLCAT with peptide/POPC/DHE substrate, 50 μM DHE, relative to SEQ ID NO: 1. Here is the method:
Recombinant human LCAT (rhLCAT), isolated from cells expressing human LCAT (Example 5), was diluted into phosphate buffer containing 5 mM β-mercaptoethanol and 60 μM bovine serum albumin to obtain rhLCAT concentrations that would deliver the indicated mass of rhLCAT to assay samples in a 5 μL volume. Substrate, prepared as in Example 1, was diluted to 62.5 μM DHE with phosphate buffer containing 5 mM β-mercaptoethanol and 60 μM bovine serum albumin. One hundred microliter volumes of the diluted substrate were added to individual wells of a black, polystyrene 96-well plate (Whatman 7701-2350) which had previously been loaded with 5 μL of rhLCAT. Blank and control wells were not loaded with rhLCAT. The plate was covered and incubated at 37° C. for one hour. The reaction was quenched by the addition of 25 μL phosphate buffer containing 2% Triton X-100 and 5 units/ml COx (Streptomyces sp.) to all wells except control wells, which received 2% Triton X-100 without COx. The plate was returned to the incubator for one hour, then equilibrated to 37° C. in the plate reader and scanned for DHE fluorescence. Percent fluorescence was calculated from the ratio of the average fluorescence of duplicate wells treated with COx to the average fluorescence of the control wells. The amount of fluorescence remaining after oxidation is directly proportional to the amount of DHE esterified by LCAT. The line represents the fit of the data by linear regression. (FIG. 4).
(§1) Two microliter aliquots of plasma were added to separate assay wells followed by 100 microliters of substrate (Example 2). The assay plate was incubated for 2 hours at 37° C. followed by quenching with COx (Example 2). The nmoles DHE ester formed in each sample was calculated by subtracting the average fluorescence of the blank wells from the fluorescence of each sample well to obtain net fluorescence. The average net fluorescence of sample wells at each rhLCAT level was then divided by the average net fluorescence of control wells and multiplied by the DHE per well, which was 6.25 nmoles, to yield the nmoles of DHE ester formed. The line represents the fit of the data by linear regression. The activity detected at 0 μg/ml rhLCAT (Y-intercept) is the activity of endogenous mouse LCAT in the plasma (FIG. 5).
LCAT-activating peptides, which are produced by solid-phase synthesis (GenScript USA, Inc), are dissolved in methanol at 5 mM concentration. Three hundred and ninety seven microliters of 5 mM LAP and 357 microliters of a chloroform solution containing 25 mM POPC and 2.8 mM DHE are added to a glass vial. The solvents are evaporated by directing a gentle stream of inert gas (e.g. nitrogen) into the vial. Residual solvent is removed by high vacuum for 2 hours. The dried mixture is dispersed in 2 milliliters of phosphate buffer (150 mM NaCl, 50 mM sodium phosphate, 1 mM EDTA, pH 7.4) to obtain a final DHE concentration of 0.5 mM. The vial is flushed with inert gas and capped after buffer addition. The dispersion is obtained by vortexing and brief (10 to 30 seconds) sonication in a water bath sonicator. The substrate is protected from light and stored with inert gas in the capped vial at 2-8° C.
The LCAT activating potential of LAP is determined with the protocol described in Example 2 at a DHE concentration of 50 μM and with the rhLCAT concentrations indicated. A linear regression fit of nmoles DHE ester formed, calculated as in Example 3, versus rhLCAT in the sample yields the specific activity (nmol DHE ester/μg LCAT/hour) of rhLCAT with substrate. This protocol was used to compare and characterize the LCAT activating potential of amphipathic peptides with mean hydrophobicities and mean hydrophobic moments that were sufficient to enable the peptides to form stable micelle complexes with phosphatidylcholine and DHE (Table 3).
Consider 12 (EVLKNLLEKLLEKLKELF) [compound 12], for which the “RELATIVE ACTIVITY (Percent activity relative to SEQ ID: 1)” value is 21%. 8 (PVLDKFLELLEELFQKLKK) [compound 8]: the “RELATIVE ACTIVITY (Percent activity relative to SEQ ID: 1)” value was 15%.

Regarding “13 (DLWQRLLELFNELLEKLKQALK) [compound 13]”, the “RELATIVE ACTIVITY (Percent activity relative to SEQ ID: 1)” value came to 0%.

As for 2 (PTLDLFRELLNELLEALKQKLK) [compound 2], the “RELATIVE ACTIVITY (Percent activity relative to SEQ ID: 1)” value came out at 94%. Same read-out and setting: under 14 (DVFQALKELFAQLLEKWKQV) [compound 14] stands 0%. For the substance 5 (PTLDLFRELLNELLQKLKK) [compound 5], the “RELATIVE ACTIVITY (Percent activity relative to SEQ ID: 1)” value worked out at 65%. 4 (PVLDLFRELLNELLQKLKK) [compound 4]: the “RELATIVE ACTIVITY (Percent activity relative to SEQ ID: 1)” value is 86%. Regarding 3 (PSLDLFRELLNELLEALKQKLK) [compound 3], the “RELATIVE ACTIVITY (Percent activity relative to SEQ ID: 1)” value is listed as 87%. Consider 9 (EWLKAFLEKVLEKLKELF) [compound 9], for which the “RELATIVE ACTIVITY (Percent activity relative to SEQ ID: 1)” value is on record as 55%.

Regarding 10 (EWLKAFYEKVLEKLKELF) [compound 10], the “RELATIVE ACTIVITY (Percent activity relative to SEQ ID: 1)” value was 43%.

As to 11 (DWLKAFYDKVFEKFKEFF) [compound 11], the “RELATIVE ACTIVITY (Percent activity relative to SEQ ID: 1)” value was determined as 28%. Same read-out and setting: under 6 (PVLDLFRELLEELLQKLKK) [compound 6] stands 65%. With 7 (PVLDLFKELLEELFQKLKK) [compound 7], the “RELATIVE ACTIVITY (Percent activity relative to SEQ ID: 1)” value worked out at 56%.

Test system in the next data set: not listed separately
Kind of data set: Time course of LCAT activity in plasma from mice injected intravenously with rhLCAT. Format: in vivo, transgenic mice expressing human apoA-I. Conditions: intravenous, 10 mg/kg (30×), plasma collected at 1 hour post-dose. On the procedure: as §1
The utility of the current invention to measure LCAT activity changes in vivo as a result of rhLCAT injection is shown in FIG. 6. Transgenic mice expressing human apoA-I (Jackson Laboratories) and maintained on chow diet were injected (intravenous) with rhLCAT in normal saline at doses of 1 mg/kg (3×), 3 mg/kg (10×) or 10 mg/kg (30×). Control animals were injected with saline alone. Plasma was prepared from blood samples collected at 0.1, 1, 5 and 24 hours following LCAT injection. […]
As to “rhLCAT: recombinant human LCAT isolated from culture medium of HEK293f cells expressing human LCAT”, the “increase in LCAT activity in plasma” value was 11 fold.
